Substrate in this series: CC(C)(CO)[C@@H](O)C(=O)NCCC(=O)O
Description: Kinetic assay of pantetheine analogs as substrates of PanK. The format is biochemical. Particulars: other: compound as substrate of E. coli PanK. The protocol:
As mentioned earlier, phosphorylation of the primary hydroxyl group of pantothenate by the first protein in the CoA biosynthesis pathway, PanK, is believed to be the rate limiting step in vivo. Jackowski and Rock, J. Bacteria 148:926, 1981. Due to its role as the gatekeeper of CoA biosynthesis, each of the new analogs was assayed for kinetic activity with PanK (Table 2).
The assay was performed as previously described using the prototypical bacterial PanK, CoAA from E. coli. Kumar and Aldrich, Org. Lett. 5:613, 2003. The reaction of CoAA with the natural substrate pantothenate gave values that conformed to those previously reported in the literature. Worthington and Burkart, Org. Biomol. Chem. 4:44, 2005; Strauss and Begley, J. Biol. Chem. 277:48205, 2002. […] Conversely, compounds with PEG linkers between the pantoic acid moiety and the bioorthogonal terminus were poor substrates for CoAA.

These results are taken from patent publication US8119364B2, “Methods for generating analogs of coenzyme A” (The Regents of the University of California, priority 2005, dated 2012).

As usually defined, the Km is the substrate concentration at which the rate is half of its maximum. One may read the kcat as the maximal rate divided by the concentration of active sites. Broadly, the kcat/Km is the turnover number divided by the Michaelis constant.

B1: E. coli PanK (CoAA) (Escherichia coli K-12) (protein)
chain: MSIKEQTLMTPYLQFDRNQWAALRDSVPMTLSEDEIARLKGINEDLSLEEVAEIYLPLSRLLNFYISSNLRRQAVLEQFLGTNGQRIPYIISIAGSVAVGKSTTARVLQALLSRWPEHRRVELITTDGFLHPNQVLKERGLMKKKGFPESYDMHRLVKFVSDLKSGVPNVTAPVYSHLIYDVIPDGDKTVVQPDILILEGLNVLQSGMDYPHDPHHVFVSDFVDFSIYVDAPEDLLQTWYINRFLKFREGAFTDPDSYFHNYAKLTKEEAIKTAMTLWKEINWLNLKQNILPTRERASLILTKSANHAVEEVRLRK
Regarding B1, the Km is 28.56 ± 1.77 µM, the turnover number (kcat) amounted to 0.521 ± 0.00967 s⁻¹ and the kcat/Km turned out to be 18200 ± 680 M⁻¹ s⁻¹.
